According to paper PMC5145181, “Structural Mapping and Functional Characterization of Zebrafish Class B G-Protein Coupled Receptor (GPCR) with Dual Ligand Selectivity towards GLP-1 and Glucagon” (PLoS ONE, 2016):

Key:
[1] = molecular target: zebrafish class B G-protein coupled receptor (zfGPCR), dual zfGLP-1R/GCGR (zebrafish (Danio rerio)); experiment: radioligand binding; competitive displacement of 125I-exendin(9-39) (100,000 cpm/well) from recombinant zfGPCR on transiently transfected COS-7 cells in 24-well plates; cold peptide pM to μM in triplicate; 16-18 h at 4°C; IC50 by four-parameter logistic fit (Prism 4)
[2] = molecular target: zebrafish class B G-protein coupled receptor (zfGPCR), dual zfGLP-1R/GCGR (zebrafish (Danio rerio)); experiment: radioligand binding; competitive displacement of 125I-hGLP-1(7-36)amide (100,000 cpm/well) from recombinant zfGPCR on transiently transfected COS-7 cells in 24-well plates; cold peptide pM to μM in triplicate; 16-18 h at 4°C; IC50 by four-parameter logistic fit (Prism 4)
[3] = molecular target: zebrafish class B G-protein coupled receptor (zfGPCR), dual zfGLP-1R/GCGR (zebrafish (Danio rerio)); experiment: radioligand binding

Sequence of human GLP-1(7-36)amide (hGLP-1) (P01275 98-127): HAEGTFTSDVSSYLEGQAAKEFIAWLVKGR
Sequence of human glucagon (P01275 53-81): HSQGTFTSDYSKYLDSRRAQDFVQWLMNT

Substance	IC50 [2]	IC50 [3]	IC50 [1]
exendin-4 (from UniProt P26349 48-87) (peptide)	0.48 nM		1 nM
human glucagon (from UniProt P01275 53-81) (peptide)		67 nM	
exendin(9-39) (peptide)	5.8 nM		4.21 nM

Continued, in another order:

IC50 [2]	IC50 [3]	Substance	IC50 [1]
2.4 nM	106 nM	zebrafish glucagon (peptide)	
3.6 nM	178 nM	human GLP-1(7-36)amide (hGLP-1) (from UniProt P01275 98-127) (peptide)	
2.1 nM	290 nM	zebrafish GLP-1 (zfGLP-1) (peptide)	
